# The supplement of paper PMC10567573
# ± gives the standard deviation.
# Assay: protein stability index of a GFP-peptide fusion (GPS, HEK-293T) (PSI 1-6); higher = more stable
# Settings: c terminus: a fixed tail appended
# 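Note: 24-mer peptide tiles fused after GFP, lentivirally expressed, FACS-sorted into six equal bins by GFP/DsRed ratio, decoded by Illumina sequencing, PSI is the read-weighted mean bin number.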
Sequence,protein stability index (treatment: DMSO),"protein stability index (treatment: MLN4924 1 uM, 8 h)"
TERMDKVGDALEEVLSKALSQRTI [GADD45A],3.83 ± 0.26,3.83 ± 0.13
TESYIARPDGDCASSLNGGNIKGI [ZC2HC1A],4.09 ± 0.047,4.24 ± 0.21
TEWACILRRKTPRHKQPTLLMVRA [C6orf223],2.19 ± 0.57,2.17 ± 0.097
TFALYKNGSSEKREVRQFQFTAWP [PTPRD],2.29 ± 0.22,2.46 ± 0.18
TFFEVSPLCNFNVIESFTELSRIV [RAB40C],2.46 ± 0.63,2.15 ± 0.43
TFQSSVLRVGIPENAPIGTLLLRL [PCDHGC5],2.23 ± 0.3,2.16 ± 0.12
TGEDVKVILKNSQGEEVAQRSTVF [LMNB1],4.7 ± 0.15,4.64 ± 0.09
THSREKSSQESGEEAGSQENHPQE [CHGB],5.54 ± 0.39,5.6 ± 0.18
THVTLLITVTQSHLVIQNLFEGMI [CDS1],3.09 ± 0.21,3.22 ± 0.16
TIPASLDLSPLLGFWQLPPPATQN [PLAGL1],2.74 ± 0.15,2.96 ± 0.32
TKHIHITQATETTTTRHKRTANPS [CLINT1],4.6 ± 0.19,4.77 ± 0.13
TKKKGVKRPARLHTKPSQAPAVEV [NOP53],4.36 ± 0.2,4.411 ± 0.021
TLDKRWRVRKEAMMGLAQIYKKYA [PDS5B],2.23 ± 0.21,2 ± 0.14
TLEQHLNTLEGKKPGNNEGSGAPS [SNAP91],4.81 ± 0.18,5.14 ± 0.08
TLHPDASANFHSLDDIYYFGGQNA [FUT8],3.21 ± 0.12,3.27 ± 0.16
TLIREKSFGACLREETPRMPSWAS [ELOA2],2.14 ± 0.13,2.67 ± 0.71
TLLLQGHHDKVQSLCYLQLTRQLV [WDFY1],2.8 ± 0.43,2.76 ± 0.38
TMARALGRFKLSIPHTHLLATLDP [WDR88],2.19 ± 0.27,2.21 ± 0.18
TNDVETARCTAGTLHNLSHHREGL [CTNNB1],3.89 ± 0.19,4.07 ± 0.18
TPAGLPPSRAKPPTEGAGSPAKAS [FBF1],5.38 ± 0.32,5.4 ± 0.1
TPDIKSHYAFRIFDFDDDGTLNRE [CIB1],3.55 ± 0.15,3.44 ± 0.21
TPEELTILGETQEEEDEILPRKDY [CLCN6],5.51 ± 0.13,5.54 ± 0.21

Sequence,protein stability index (treatment: DMSO),"protein stability index (treatment: MLN4924 1 uM, 8 h)"
TPEKKAEEERDEEEDKRRKGEEVT [EPB41L3],5.74 ± 0.29,5.75 ± 0.27
TQQELRKIREKEEWIKLDYHRRHN [IQUB],3.88 ± 0.29,3.82 ± 0.52
TQRLWDFTQSGPIVSRATGRCLEV [GALNT9],2.81 ± 0.43,3.02 ± 0.22
TQYFAELLMTSGVVLCEGVKWLSF [CNOT7],3.25 ± 0.2,3.56 ± 0.19
TQYFVQENYLEYRQVPGSDPACYE [MAGEA6],3.34 ± 0.29,3.59 ± 0.38
TRGKRESESRGSSGRVKRERDRER [USP39],5.04 ± 0.26,5.3 ± 0.18
TRHYRPPEVILELGWAQPCDVWSI [CLK3],2.69 ± 0.65,2.47 ± 0.52
TRPTQHELRLYKQQVKKLEKALKK [CEP70],3.23 ± 0.25,3.07 ± 0.29
TRSHLWEAAQVVPDGLGLDEAREE [TRIB3],5.13 ± 0.24,5.13 ± 0.28
TRTGPSAWETKKILAVSFAPLIQP [PCMTD2],2.14 ± 0.29,2.31 ± 0.31
TSAKVNWMPPPSRADSFKVSYQLA [TNXB],2.5 ± 0.32,2.69 ± 0.26
TSIGDGPLSSDIQVITQTGVPGQP [PTPRD],4.6 ± 0.22,4.76 ± 0.19
TSPTRQHHVEREKDHSSSRPSSPR [BTBD10],5.38 ± 0.12,5.45 ± 0.092
TTKFTGSHKERFDPSGKGKGKAGR [TPPP],4.83 ± 0.2,4.93 ± 0.32
TTPLSPTRLSRLQEKEELRELNDR [LMNB1],5.18 ± 0.39,5.1 ± 0.18
TVASEAKIQLSDSEAKSHSSADDA [FAN1],5.46 ± 0.28,5.38 ± 0.27
TVFDANDNAPVFTLPEYRVSVPEN [PCDHGA10],3.53 ± 0.11,3.86 ± 0.16
TVKHIDAALSEENTGKTYFFVANK [MMP1],3.28 ± 0.32,3.38 ± 0.18
TVLAVLEDSSRDIREALHELLCCT [INTS4],2.43 ± 0.54,2.29 ± 0.26
VACSETAPDLVLNAEMVQQTTYLE [LOXL2],4.41 ± 0.53,4.5 ± 0.25
VAFVDRADIKQYIGPPSAAAIFKI [TRIP13],2.82 ± 0.66,2.36 ± 0.47
VASRNLFPKDTLMNLHVYISEHEH [CLPTM1],2.35 ± 0.34,2.37 ± 0.51
